B1: HDV Ribozyme (parent)
chain: GGCCGGCAUGGUCCCAGCCUCCUCGCUGGCGCCGGCUGGGCAACAUUCCGAGGGGACCGUCCCCUCGGUAAUGGCGAAUGGGACCCA

Variants of: B1
Test: self-cleavage, relative activity (ratio to wild type); higher = more cleavage; co-transcriptional

| Variant | self-cleavage |
| --- | --- |
| G11U C61U | 0.443 |
| G11U C61G | 0.315 |
| G11U C61A | 0.355 |
| G11C G73C | 0.0346 |
| G11U C41G | 0.204 |
| G11C G80A | 0.136 |
| G11C G25C | 0.0475 |
| G11C G25U | 0 |
| G11C G25A | 0.0449 |
| G11U C33G | 0.0594 |
| G11U C33U | 0.0997 |
| G11A A71G | 0.554 |
| G11A A71C | 0.295 |
| G11A A71U | 0.229 |
| G11A C84G | 0.851 |
| G11A C84A | 0.787 |
| G11A C84U | 0.991 |
| G11A C21U | 0.175 |
| G11A C21A | 0.11 |
| G11A C21G | 0.04 |
| G11A U79G | 0.0923 |
| G11A U79A | 0.0652 |
| G11U A16C | 0.38 |
| G10U U65G | 0.619 |

| Variant | self-cleavage |
| --- | --- |
| G11C C24G | 0.0583 |
| G11C C24U | 0.219 |
| G11C C24A | 0.0898 |
| G10U G39C | 0.138 |
| G11C A87G | 0.34 |
| G11C A87C | 0.607 |
| G11U A42G | 0.0386 |
| G11U A42C | 0.0308 |
| G11C C86G | 0.312 |
| G11A G53U | 0.588 |
| G11U C14A | 0.0707 |
| G11C A56U | 0.111 |
| G11C A56C | 0.598 |
| G10U U20A | 0.0639 |
| G10U U20G | 0.113 |
| G11C U69A | 0.166 |
| G10U G35C | 0.0723 |
| G10U G35U | 0.337 |
| G10U G35A | 0.604 |
| G11U C21G | 0.086 |
| G11C U65G | 0 |
| G11C U65A | 0.293 |
| G11C C18A | 0.0804 |
| G11C C18U | 0.0992 |

| Variant | self-cleavage |
| --- | --- |
| G11A G40C | 0.0623 |
| G10U G67U | 0.819 |
| G10U G67A | 0.611 |
| G10U G67C | 0.572 |
| G11C C64U | 0.269 |
| G11C C64A | 0.629 |
| G11C G31U | 0.0482 |
| G11C G31C | 0.0791 |
| G11U C48G | 0.212 |
| G11U C26A | 0.689 |
| G11C C44G | 0 |
| G11C C44A | 0.0923 |
| G11C C44U | 0.0437 |
| G11U C49U | 0.386 |
| G11U C49G | 0.166 |
| G11C A78C | 0.0369 |
| G11A U60C | 0.43 |
| G11A U60G | 0.399 |
| G11A C33G | 0.0554 |
| G11A C33A | 0.151 |
| G11C U46C | 0.123 |
| G11C U46A | 0.115 |
| G11C C19U | 0.0302 |
| G11C C19A | 0.0314 |

| Variant | self-cleavage |
| --- | --- |
| G11C C19G | 0.0811 |
| G11A U37G | 0.142 |
| G11U C15G | 0.166 |
| G10U G81A | 0.026 |
| G11A C85U | 0.787 |
| G11A C85A | 0.735 |
| G11A C64G | 0.705 |
| G11A C64U | 0.249 |
| G11A A78G | 0.193 |
| G11C U79G | 0.0875 |
| G11C U79A | 0.0723 |
| G11U C63U | 0.364 |
| G11U C63A | 0.228 |
| G11A A43C | 0.106 |
| G11A A43U | 0.198 |
| G11C C15U | 0.0554 |
| G11C C15A | 0.0396 |
| G11A C48U | 0.326 |
| G11A U20C | 0 |
| G11A U20A | 0.0623 |
| G11A U20G | 0.0326 |
| G11C C85A | 1.18 |
| G11C C85U | 0.266 |
| G11C G34U | 0.0302 |

| Variant | self-cleavage |
| --- | --- |
| G11U A70U | 0.228 |
| G11U A70G | 0.201 |
| G11U C18G | 0.158 |
| G10U C86U | 0.867 |
| G11C C49A | 0.388 |
| G11A G31A | 0.114 |
| G11A G31C | 0.0997 |
| G10U G25C | 0.111 |
| G10U G25U | 0.125 |
| G11A C36U | 0.156 |
| G11A C18G | 0.041 |
| G11A C18U | 0.12 |
| G11A C18A | 0.0841 |
| G11A G55U | 0.328 |
| G11A G55C | 0.396 |
| G11A U27G | 0.359 |
| G11C C57U | 0.388 |
| G11C C57A | 0.453 |
| G11C C57G | 0.249 |
| G11A G76A | 0.578 |
| G11A G76U | 0.623 |
| G11A C24G | 0.0747 |
| G11A C24A | 0.126 |
| G11A C24U | 0.194 |

| Variant | self-cleavage |
| --- | --- |
| G11C G50C | 0.365 |
| G10U G74A | 0.107 |
| G10U G80A | 0.131 |
| G10U G80C | 0.0936 |
| G11A A51U | 0.468 |
| G11A A51G | 0.374 |
| G11A U72C | 0.121 |
| G11A U72A | 0.179 |
| G11C U27A | 0.646 |
| G11C U27C | 0.196 |
| G11A G29A | 0.0633 |
| G11C C13G | 0.0437 |
| G11C C13U | 0.0852 |
| G11C G55U | 0.305 |
| G11C G55C | 0.228 |
| G11C G82C | 0.287 |
| G11C G82U | 0.104 |
| G10U G34A | 0.259 |
| G11A G68A | 0.372 |
| G11A G68U | 0.249 |
| G11C G76A | 0.312 |
| G11C G76C | 0.628 |
| G11C G76U | 0.604 |
| G11A G39U | 0.0989 |

| Variant | self-cleavage |
| --- | --- |
| G11A G39C | 0 |
| G11A G34U | 0.219 |
| G11A G34A | 0.358 |
| G10U U79C | 0.0615 |
| G11C A45C | 0.116 |
| G11C C66U | 0.289 |
| G10U G31C | 0.158 |
| G11C C32A | 0.0437 |
| G11U A77G | 0.283 |
| G11A G28C | 0.0936 |
| G11A G28A | 0.0268 |
| G11C G52U | 0.228 |
| G11C G52A | 0.232 |
| G11C U12C | 0.145 |
| G11C U12A | 0 |
| G11C U12G | 0.123 |
| G11U C58A | 0.326 |
| G10U G59C | 0.857 |
| G10U G59U | 0.905 |
| G11C C14A | 0.106 |
| G11C G68C | 0.0831 |
| G11C G68U | 0.291 |
| G11U A43G | 0.0339 |

— the RNAGym collection of RNA variant scans (doi:10.7554/elife.80360)
